Measurements as given in patent US20220089707A1 (University of Texas, published 2022).

Target: T1, β2-microglobulin (UniProt P61769 21-119)
T1 construct: also called beta2-microglobulin
Assay: ELISA

- binding result: no binding
B1: A2-DKK1 mAb (C2) (antibody, V domains shown)
VH: DVQLVESGGGLVQPGGSRKLSCAASGFTFSSFGMHWVRQAPEKGLEWVAYISSGSSTIYYADTVKGRFTISRDNPKNTLFLQMTSLRSEDTAMYYCARPYYYGSTYDAMDYWGQGTSVTVSS
VL: DIVMTQSHKLMSTSVGDRVTITCKASQDVGSTVAWYQQKPGQSPKLLIYWTSTRHTGVPDRFTGSGSGTDFTLTISNVQSVDLAVYFCQKFGSYPLTFGGGTKLEIK
notes: Murine monoclonal antibody from a Balb/c x SP2/0 hybridoma; also called C2 mAb; antibody C2
